The record followed here is the domain aggregation screens of Martell et al. (2025).

This data set can be described thus: soluble fraction after stress (log2 fold change); higher = more stays soluble; pooled small domains, quantitative proteomics. The settings on record: stress: 50 degC. In outline:
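Pooled custom libraries of small protein domains were measured in a high-throughput format, with quantitative proteomics as the read-out. Each library was stressed at 50°C. Aggregation propensity is given as the base-two logarithm of the fold change in how much of each protein stays soluble after the stress. Higher values mean a larger share of the protein remains in solution.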
Regarding “HMQITAPVQKIDGVEYYMHKVEQGQTLYSISKLYNVGVKEIQKANQLGTEGIQLGQVLKVRKGG”, the “soluble fraction (log2)” value is -0.0136.
In the case of “HMQLPIGDVKLSVEHLSSGTALQDISFEVHRGEIFGFLGLVGAGRSETAETIFGLREKTDGKISIDGTVL”, the “soluble fraction (log2)” value is -0.214.
“HMGRMSLDEAKAVILPIGEHKGHTMGEVLAIKPGLIDFYASQKFNSGKYPYLKEAAQVILENQG”: the “soluble fraction (log2)” value was -0.109.
The same measure for “HMNQRTATVTASQLNVRSGPSTAYSIVHVLRQGETVEVIGESDGWYQIRLKDGRVGWSSGQYLNLN”: 0.0784; for “HMTPQNAAAVLRYLSSGAIKGVGPSTAQRIVEKFGAESLDIIQNKPEELATIRGISLSKALAVSEEYNKQY”: -0.202; for “HMAITYETKVISGVNLRSAPSTSASVYQLIPKGENIHVVQKVNDYWLKVQTKDGKTGYISASSKYTNYIG”: -0.773.
In the case of “HMSIQMPDLSITPVTDAKKKIESLQLQYKEVGEYNDSVIAGYVIRTEPASGSYLNEDEEVIIYVSKG” it was -0.246; in that of “HMQPADYSDLYAAAKSAGEADMRAAFALTDKQERTAAVNAARETIKAALSEEQLADANLGSALKKLEAGV”, -0.337; in that of “HMQASIPQSQKDALAKELQALPPHGRNRVLSTFRQQFNISSEKISEFITTPEHLSFIRSKIAEVESDS”, 0.0722.
As for “HMDSVEYRVITGDDVNFRKGPSTDYASLGKLNKGYKVEYISETNSWSKVKYNGQTGYVYSKYVAQT”, the “soluble fraction (log2)” value amounted to 0.0362.
In the case of “HMNINTEMEKVSYSLGVNIASSLKQQGWELDAKSLSDAFVDVFNGNKLLIDEKEASSILQNYQQKIANK”, the “soluble fraction (log2)” value was -0.144.
In the case of “HMAAGVESLTEKEFAVASLVGGGASNREIAERLAMSERTVKSHLSSIFRKMDVRDRVQLALAMND” it was 0.00815; in that of “HMSHSDMEEWTDAVRSRRKKLGLTQVQIARRLGVTSHHFSQIESGRTIPSASLQIEIDRLLKNWND”, -0.963.
The same measure for “HMTGEEVLIMLGEKMKLIRNYNGYSQRQIAEILKIERSTYASYETGRNRPDIFAVQRFAKIFNVSVDYIL”: -0.118; for “HMITANNYFNEVERIGVETLPETLRKGHDLVVRSTNSGTNWSNYQNNESIRKVIDLYLQKLNEYVSTST”: 0.131.
The same measure for “HMNGGPHYLRDVRTSLGLSQADLAKAVGTSANMIHYLESGERALTLKWIRRISEALNVSPMRLIN”: -1.6; for “HMKRRSVIVSVVRAQVRQSADEAAAVVFEAEKNVSLDYLETMPGGWVKVRHRDGQTGFVRVNQIWG”: -0.807.
On to “HMPLNAHIVGRGKRDRRGKRGAPYSIVLELGRDENGKRIQKWYSGYPTKAAAEEDKIRMLRELQTGEYVPQ”, for which the “soluble fraction (log2)” value is -0.309.
Regarding “HMASLSITVNGETRRAAPGSIADLVRAIGLDPAKVAVERNGEIAPRSTLADVALADGDVLEIVHFVG”, the “soluble fraction (log2)” value is -0.0709.
Turning to “HMRPTHYSGPSVIAMINNRVWFSDGSRLAPGEHHDDLEVVGLSPPWSAKVRWQGVEFDVGLFE”, the “soluble fraction (log2)” value is -1.45.
Turning to “HMIQVNKTQALIIEEMRDNPNITLLELQKTLSLGRTAIQNNVSSLRKRQIIKRVGSNKNGYWEVTDK”, the “soluble fraction (log2)” value was -1.95.
For “HMRKDEFLQTLRRALNGNVPPRVVEENVRYYDGYISDEVRKGRSEEEVIEEIGDPRLIARTIEDTT”, the “soluble fraction (log2)” value came to 0.0826.
In the case of “HMKVTADVVVADRLKAWIISNNLKPGDRLPTEQKLSEELGVARHTLREGIKRLSQLGIIGSRTGSGMYVKN” it was 0.0235; in that of “HMSNHYETLGVPRDASQEDIKRAYRRLARKLHPDVAGPGKAEEFKAVNEAYAVLSDEESRRMYDLGGDDAL”, 0.146; in that of “HMLVTQSITVPMAMSGIRLDAALAMLFPDHSRNRLKAWLDDGHILVDGAVWAGKQRLEGNEEITATLPEAK”, -0.207.
The same measure for “HMYQFFVDPGQIQGKRVTITGSDVNHIKNVLRMRIGEEIAVSNGKDGLEYRFGIDEILEDEVIGTLRFVKE”: -0.968.
Take “HMTAVNEHELMNQFKLSLGYANGDDPQTKLSTDEKNDFMRFKEWATAMTKDSKMGKDPDYLKKLAVQWTLK”: the “soluble fraction (log2)” value worked out at 0.214.
The same measure for “HMELPVAVPHTELSPEALRGVVESFVLREGTDYGERDVPFEAKVAQVIRQLERGEARIMFDPVTQSVQIVT”: 0.102; for “HMAFRIGGFVQEGSVVRQQDGGTVRFEVTDTAHSVPVTYKGSLPDLFKEGKGVVAQGKLMNGTFVADQVLA”: -0.0129.
In the case of “HMDAMLGEALRLIRVYHDLKQKQAAERLEVSTSYLSEIERGLKTPTLDIIQRYATVFDMPVSSIMFFSENL” it was -3.03; in that of “HMVRTIKILGIKHNINLYYKNVKVPTMNVKNQTLEIILPNKYKKFQEEQILKVLTQKLYDKIAETEIEKIK”, -0.465.
In the case of “HMFKEVPVPDVKGMTLEEAKLALEKEGFILGKTEEAESTEVAAGKIISQNLEAGKIAKQGTSVNLVVSKGK”, the “soluble fraction (log2)” value was found to be 0.24.
The same measure for “HMRAAFEHLTIGQTVSGLVKSQARGVSLVEIEGQTVAMRLPQPVAVGDTLRLRFAGHMPQPVFLLDT”: -0.132; for “HMLGKEVVRAYNISYAIDDKGSLQGDLTAALTGLIPLSKPPVLDQRNRSLYVTATPEQHKDVAALLAKL”: -0.171.
The same measure for “HMVDQAFQTQLKNIQARTGKNLDELYAFIRASGLVKHGEIRDLAKRELSLGHGDANTLAKFYLESLAAAA”: 0.269; for “HMVPAMEVALEDARRAIEQVVSGERTSVQLSSQEAMIRKLQHQMAKDANLFSRSSGVEPQRRVTIYTN”: 0.0136.
Regarding “HMTVSADIIQKIIKTSTTDENIITIDSISNSISKLALSKITAEDIIEILEASSLVLRNSNGSWTVL”, the “soluble fraction (log2)” value is -0.617.
Turning to “HMRHSLAAALTELRRLAALDLGDFFRFEYVSHTDSLGGKQQAYTEGIRVSFGVYLGVNKKDRLNVDPVV”, the “soluble fraction (log2)” value was -3.44.
As to “HMETVVTEVKTTDVVNIRTSDSETADKLSKAAIGDTFPLLEERGNGWSKVAYNGEEAFIKSDYLEPSKTE”, the “soluble fraction (log2)” value is 0.42.
In the case of “HMTKTEFLEALRRALNGNMAAASVEDNLKFYENYFYSEEAKGRSEAAVLSELGDPRILARTLIDAAER” it was 0.0765; in that of “HMDEQKNREIALIENIQREDLNPYEKALGIRNLMDKYGLTQEEVSKRIGKSRSAVSNTVRILNLAPDVL”, 0.0391; in that of “HMKGVENLSDIDIQKALNNARANLSKNKAKLEQAGDDEKKKASALAMIQKWETTKKAIEEEIEARKKKSLN”, -0.296.
The same measure for “HMDPEEQIQSREIWEAVERALDGMQEKGRRVVIALLEGQTQLEVSRAAGISQPLISYYLKSFRTKVRTELG”: -0.48; for “HMNRKILVLLAGKEQITDNVSVMQSIHRYAFINTATINKAQHEILIEKEEIRQEALTLIHEFLK”: -0.0593; for “HMQRYYDVLGLQKGVSPEELKKTYRELSKKYHPDAHHNSPLRDLAEAKFKEINEAYEKIKEFLDNNF”: 0.15.
In the case of “HMDDENKIEVMINEEKVQLTGKDKYVFVDIFNYIDMDLTRIHGNLVLKLNGENASHNSLLKSGDKIEARWE” it was -0.181; in that of “HMGGEEKALLFGDVDIREAGEITQRLEQAEIPYELRGDGSSIFVPRSRVMEARMMISADGLL”, -0.0992; in that of “HMYDPVNEIGRVLKKIRQERSLTLDNVAEITGVSKTMLGQIERGVSVPTISVLWKIAKGLQVSLSTLLNE”, -0.826.
As to “HMAKNIEVPNLVGSTISVARNDLKQLGLHVIVRDSVWSEDKKIDTILEQFPEPGKKLKPEGVVQVVVSI”, the “soluble fraction (log2)” value was -0.408.
The same measure for “HMSQIILSARSGHAALRHRLGELGYTFADKEFDDIYERFLEVADQKKEVYDEDLESIVQERQRD”: 0.0537.
The same measure for “HMNEIALETAIEDVESFIQMQNRNLAFSIDEDTDRAVVTVRDSDSGDVIRQIPSEEVLALAERIQDLQQD”: 0.136; for “HMNMAEQGISLDSEAGKARFVSQALPLLKQLPDGVFKQRMLNQLADRVEVTADFIAQQLAQLKAA”: -0.079; for “HMNTYEIIGGDNRARGPVTGEELSQWIREGRASGHTMARVSDGEHWQPLGSFPEFVGPLQGLPW”: 0.127.
As to “HMEETEVPPVTGYEQSKASEVLTGKGLIPDIITVADEETAAGYVIRTDPASGEKVPSGTTVKVYVSSGP”, the “soluble fraction (log2)” value stood at 0.159.
Consider “HMGRFAETVEHIVAAQLARRQGIPTMEQFASFFNVSRATFQRRLGEEGETLEQIKQRVRLRLALELLHP”, for which the “soluble fraction (log2)” value was -2.86.
In the case of “HMANSANARKSLVSKLIAGGKIASQSDLVKALKKQGIVVTQGTASRDLEDIGAIRVRNSEGEIVYALT” it was 0.081; in that of “HMRLDSELVSARLHRFMGTNRKPDGEIVEKIAAILEGHPIETLDAFLQSLNGRKIKSYGFFPTVLRREIAN”, -0.319; in that of “HMEMTEDEITKQFDAMEREAKKEIDTGADKRAFMYGVSRTAAGMAGKNPKYARFITDKAKEVIENIAKYK”, 0.108.
For “HMADLIIMSSDATEKQVDKVINKIKNMGFNVNISKGTEKTIIGIIGDTRGISDEVFKIMPGVIEVISILRD”, the “soluble fraction (log2)” value is -0.39.
In the case of “HMRLANGIGTVYKLSGNRRNPYIVRKTTGWEIDEESGKAKQKYITIGYAPTRAKGLEMLMDYNKNP” it was -0.428.
Take “HMNENDENLRQQAIDASKEVRRWGEPVTLPPMNAHDRRIIHITLEGESDLQTESTGEGNFKSVVISLK”: the “soluble fraction (log2)” value is -0.111.
The same measure for “HMNPNSIDEKLKLLSNREKEVAILVLKKLSYFEISEQLNITIRTVKAHTKNIYEKFNVSNRLAFLLLFN”: -0.225; for “HMKNYYELLGVAREASQDQIKKAYRKLARKYHPDVSKEADAETRMQELNVAYDTLSDAEKKREYDFQLDHP”: 0.00768; for “HMIADPAKPDWTTILAPVTTGTTVTHKTFGQGTVTKLDKTKKYLTVSFAAGQKNFVFPNAFIDGFLK”: 0.203.
The same measure for “HMGVEVEVPNVKGKLVADAEYELGLAQLTPVRTDSAYNRNLPPGTVLEQLPASGSHVKEGREIYLTINST”: 0.264; for “HMAVLGIQPVFHRSTGQTVYKSSVNTAKGRVYLGLFPTLTEALEIKLKYMQEHGHTKGITNLTNKLKEL”: -1.17.
Take “HMRELSDFEKLLFTTTLERKMINLAMLLTRSNKADSKDLIQDSYLKAIENQVQFNGNNIDAWVITILKNTF”: the “soluble fraction (log2)” value amounted to 0.139.
The same measure for “HMKPTVKGHFTRKESNVGGYADVRGWGVAGTPSMMANQSKDTRRFSTLIVPGRSVNVHPSPTKEAIIWWQS”: -0.0091.
